Substitutions are numbered along the chain they refer to. Names may count otherwise.
B1: LK-VRB-19s (ligand)
chain: APMAEGGGQNHHEVVKFEDVYRRSSCHPIETLVDIFQEYPDEIEYIFKPSCVPLMRCGGCCNSEMRECVPTEESNITMQIMRIKPHQGQHIGEMSFLQHNKCECRPKKD
B2: LK-VRB-1s* (ligand)
chain: B1 chain with Y21L, S63D, M65G, R66L
B3: LK-VRB-3s (ligand)
chain: B1 chain with F17I, Y21F, R22K, S63D, M65G, R66L
B4: LK-VRB-4s (ligand)
chain: B1 chain with F17I, Y21F, R22E, S25I, S63D, M65G, R66L
notes: the codon printed for Y25I is CAC (His)
B5: LK-VRB-9s (ligand)
chain: B1 chain with E18M, S25Y
B6: Native VEGF (8-109) (ligand)
chain: GQNHHEVVKFMDVYQRSYCHPIETLVDIFQEYPDEIEYIFKPSCVPLMRCGGCCNDEGLECVPTEESNITMQIMRIKPHQGQHIGEMSFLQHNKCECRPKKD
B7: LK-VRB-7s* (ligand)
chain: B1 chain with R22Q, S25Y
B8: LK-VRB-8s* (ligand)
chain: B1 chain with E18M, Y21L, R22Q, S25Y
notes: 'Y2IL' read as Y21L (codon CTC)
B9: LK-VRB-10s (ligand)
chain: B1 chain with E18M, R22Q
B10: LK-VRB-11s (ligand)
chain: B1 chain with Y21L, R22Q, S25Y
B11: LK-VRB-12s (ligand)
chain: B1 chain with S25Y
B12: LK-VRB-13s (ligand)
chain: B1 chain with R22Q
B13: LK-VRB-14s (ligand)
chain: B1 chain with E18M, Y21L, S25Y
B14: LK-VRB-15s (ligand)
chain: B1 chain with E18M, Y21L, R22Q
B15: LK-VRB-16s (ligand)
chain: B1 chain with E18M
B16: LK-VRB-17s (ligand)
chain: B1 chain with Y21L, S25Y
B17: LK-VRB-20s (ligand)
chain: B1 chain with E18M, Y21L
B18: LK-VRB-21s (ligand)
chain: B1 chain with Y21L, M65G, R66L
B19: LK-VRB-22s (ligand)
chain: B1 chain with Y21L, S63D, R66L
B20: LK-VRB-23s (ligand)
chain: B1 chain with Y21L, S63D, M65G
B21: LK-VRB-24s (ligand)
chain: B1 chain with Y21L, R66L
B22: LK-VRB-25s (ligand)
chain: B1 chain with Y21L, M65G
B23: LK-VRB-26s (ligand)
chain: B1 chain with Y21L, S63D

Biological target: T1, KDR (1-3) (UniProt P35968 20-327, limits assumed)
T1 construct: domain: KDR (1-3); Soluble KDR (1-3) at 1 ug/ml, captured on anti-KDR antibody MAKD5; also called KDR (1-3) monomer
T1 sequence (P35968 20-327 limits assumed): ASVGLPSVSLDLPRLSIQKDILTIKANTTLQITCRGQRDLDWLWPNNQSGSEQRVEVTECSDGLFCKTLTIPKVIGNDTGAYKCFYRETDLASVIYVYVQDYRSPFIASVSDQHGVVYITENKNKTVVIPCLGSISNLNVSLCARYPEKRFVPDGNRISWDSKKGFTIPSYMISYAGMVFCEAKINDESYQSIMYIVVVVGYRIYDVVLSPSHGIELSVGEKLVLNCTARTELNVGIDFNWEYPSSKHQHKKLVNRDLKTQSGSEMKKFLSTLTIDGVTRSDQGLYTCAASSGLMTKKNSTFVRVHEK
Experiment: competition ELISA: displacement of biotinylated native VEGF (8-109) from KDR (1-3); concentration at midpoint absorbance
Protocol: (§1) Aliquots of this mixture (100 μl) were added to the precoated microtiter wells and the plate was incubated for 1 hour at room temperature.
(§2) The wells were then incubated with 3,3′,5,5′-tetramethyl benzidine (0.2 gram/liter; Kirkegaard & Perry Laboratories, Gaithersburg, Md.) for about 10 minutes at room temperature. Absorbance was read at 450 nm on a Vmax plate reader (Molecular Devices, Menlo Park, Calif.).
(§3) Titration curves were fit with a four-parameter nonlinear regression curve-fitting program (KaleidaGraph, Synergy Software, Reading, Pa.).

Question: How did the IC50 turn out when B1 was run?
Answer: 7 nM

Biological target: T2, Flt-IgG (a chimeric Flt-human Fc molecule) (human, UniProt P17948 27-758, limits assumed)
T2 construct: not shown: human IgG Fc
T2 sequence (P17948 27-758 limits assumed, change not shown): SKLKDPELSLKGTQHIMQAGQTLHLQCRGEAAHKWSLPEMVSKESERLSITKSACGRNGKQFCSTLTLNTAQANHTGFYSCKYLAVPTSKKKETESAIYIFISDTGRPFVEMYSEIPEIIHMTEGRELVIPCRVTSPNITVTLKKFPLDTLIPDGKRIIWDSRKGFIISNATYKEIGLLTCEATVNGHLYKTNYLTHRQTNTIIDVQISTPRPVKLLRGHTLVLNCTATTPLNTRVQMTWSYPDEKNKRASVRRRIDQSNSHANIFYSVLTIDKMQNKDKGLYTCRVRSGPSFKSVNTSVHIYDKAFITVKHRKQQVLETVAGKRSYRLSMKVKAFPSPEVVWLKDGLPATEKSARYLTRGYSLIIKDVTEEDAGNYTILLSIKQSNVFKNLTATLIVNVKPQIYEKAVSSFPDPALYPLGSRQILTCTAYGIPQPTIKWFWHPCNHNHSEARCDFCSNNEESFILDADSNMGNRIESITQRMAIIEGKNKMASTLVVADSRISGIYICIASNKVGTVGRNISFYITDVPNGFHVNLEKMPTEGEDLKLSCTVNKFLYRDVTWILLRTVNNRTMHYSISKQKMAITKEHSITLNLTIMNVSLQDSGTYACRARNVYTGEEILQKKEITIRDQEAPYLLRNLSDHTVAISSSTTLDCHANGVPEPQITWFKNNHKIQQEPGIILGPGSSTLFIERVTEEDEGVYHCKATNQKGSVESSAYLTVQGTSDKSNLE
Experiment: competition ELISA: displacement of biotinylated native VEGF from Flt-IgG
Protocol: The wells were filled with 100 μl of a solution containing Flt-IgG (a chimeric Flt-human Fc molecule) at 50 ng/ml in assay buffer (0.5% BSA, 0.05% Tween 20 in PBS). The wells were incubated at room temperature for 1 hour and then washed three times in wash buffer (0.05% Tween 20 in PBS).
Aliquots of the mixture (100 μl) were added to the precoated microtiter wells and the plate was incubated for 2 hours at room temperature. […] The wells were then incubated with […] (0.2 g/liter, Kirkegaard & Perry Laboratories, Gaithersburg, Md.) for about 10 minutes at room temperature. Absorbance was read at 450 nm on a Vmax plate reader (Molecular Devices, Menlo Park, Calif.).
as §3

Question: B2 was tested. Which “relative binding affinity (ratio to native VEGF (8-109))” value did it give?
Answer: 6000 fold

Question: For B3, which “relative binding affinity (ratio to native VEGF (8-109))” value is on record?
Answer: 400 fold

Question: For B4, which “relative binding affinity (ratio to native VEGF (8-109))” value is on record?
Answer: 200 fold

Question: Which “relative binding affinity (ratio to native VEGF (8-109))” value does the source give for B5 here?
Answer: 300 fold

Biological target: FLT-1 Receptor (RIA of Example 11) (UniProt P17948 27-758, limits assumed)
Sequence (P17948 27-758 limits assumed): as the sequence (P17948 27-758 limits assumed, change not shown) above
Experiment: RIA, essentially as in Muller et al. 1997

Question: How did the “relative binding affinity (ratio to native VEGF 165)” value turn out when B2 was run?
Answer: 14000 fold

Biological target: KDR Receptor (RIA of Example 11) (UniProt P35968 20-764, limits assumed)
Sequence (P35968 20-764 limits assumed): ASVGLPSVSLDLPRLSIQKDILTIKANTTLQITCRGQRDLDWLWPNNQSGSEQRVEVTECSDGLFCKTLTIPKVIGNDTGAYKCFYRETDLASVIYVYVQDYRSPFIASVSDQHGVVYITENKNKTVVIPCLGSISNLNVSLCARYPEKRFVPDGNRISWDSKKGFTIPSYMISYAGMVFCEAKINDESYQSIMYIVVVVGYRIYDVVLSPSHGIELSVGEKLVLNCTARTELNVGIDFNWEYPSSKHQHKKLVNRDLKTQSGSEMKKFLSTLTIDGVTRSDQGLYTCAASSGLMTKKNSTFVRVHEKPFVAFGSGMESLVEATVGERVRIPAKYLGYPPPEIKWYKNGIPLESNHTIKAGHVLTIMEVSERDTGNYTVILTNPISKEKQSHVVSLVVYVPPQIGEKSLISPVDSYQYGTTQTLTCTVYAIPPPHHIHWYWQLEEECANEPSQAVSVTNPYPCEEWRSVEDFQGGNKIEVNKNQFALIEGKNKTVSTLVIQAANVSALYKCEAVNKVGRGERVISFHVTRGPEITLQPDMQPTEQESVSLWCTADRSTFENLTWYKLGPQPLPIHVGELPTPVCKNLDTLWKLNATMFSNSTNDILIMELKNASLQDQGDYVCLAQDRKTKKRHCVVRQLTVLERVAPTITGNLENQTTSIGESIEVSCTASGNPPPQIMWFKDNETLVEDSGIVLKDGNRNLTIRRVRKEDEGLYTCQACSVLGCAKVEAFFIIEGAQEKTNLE
Experiment: RIA, essentially as in Muller et al. 1997

Question: For B2, which “relative binding affinity (ratio to native VEGF 165)” value is on record?
Answer: 20 fold

Biological target: T1, KDR (1-3)
Experiment: competition ELISA (Example 7): serially diluted unlabelled native VEGF (8-109) incubated with biotinylated native VEGF (8-109) (84 nM) and KDR (1-3) (1 ug/ml), complex captured on anti-KDR antibody MAKD5, detected with peroxidase-streptavidin, OD 450
Protocol: as §1, §2, §3

Question: With B6 as the binder, how does the “IC50 (read off the curve)” value read?
Answer: ~2 nM

Biological target: KDR receptor on human umbilical vein endothelial cells (HUVEC) (human, UniProt P35968 20-1356)
Sequence (P35968 20-1356): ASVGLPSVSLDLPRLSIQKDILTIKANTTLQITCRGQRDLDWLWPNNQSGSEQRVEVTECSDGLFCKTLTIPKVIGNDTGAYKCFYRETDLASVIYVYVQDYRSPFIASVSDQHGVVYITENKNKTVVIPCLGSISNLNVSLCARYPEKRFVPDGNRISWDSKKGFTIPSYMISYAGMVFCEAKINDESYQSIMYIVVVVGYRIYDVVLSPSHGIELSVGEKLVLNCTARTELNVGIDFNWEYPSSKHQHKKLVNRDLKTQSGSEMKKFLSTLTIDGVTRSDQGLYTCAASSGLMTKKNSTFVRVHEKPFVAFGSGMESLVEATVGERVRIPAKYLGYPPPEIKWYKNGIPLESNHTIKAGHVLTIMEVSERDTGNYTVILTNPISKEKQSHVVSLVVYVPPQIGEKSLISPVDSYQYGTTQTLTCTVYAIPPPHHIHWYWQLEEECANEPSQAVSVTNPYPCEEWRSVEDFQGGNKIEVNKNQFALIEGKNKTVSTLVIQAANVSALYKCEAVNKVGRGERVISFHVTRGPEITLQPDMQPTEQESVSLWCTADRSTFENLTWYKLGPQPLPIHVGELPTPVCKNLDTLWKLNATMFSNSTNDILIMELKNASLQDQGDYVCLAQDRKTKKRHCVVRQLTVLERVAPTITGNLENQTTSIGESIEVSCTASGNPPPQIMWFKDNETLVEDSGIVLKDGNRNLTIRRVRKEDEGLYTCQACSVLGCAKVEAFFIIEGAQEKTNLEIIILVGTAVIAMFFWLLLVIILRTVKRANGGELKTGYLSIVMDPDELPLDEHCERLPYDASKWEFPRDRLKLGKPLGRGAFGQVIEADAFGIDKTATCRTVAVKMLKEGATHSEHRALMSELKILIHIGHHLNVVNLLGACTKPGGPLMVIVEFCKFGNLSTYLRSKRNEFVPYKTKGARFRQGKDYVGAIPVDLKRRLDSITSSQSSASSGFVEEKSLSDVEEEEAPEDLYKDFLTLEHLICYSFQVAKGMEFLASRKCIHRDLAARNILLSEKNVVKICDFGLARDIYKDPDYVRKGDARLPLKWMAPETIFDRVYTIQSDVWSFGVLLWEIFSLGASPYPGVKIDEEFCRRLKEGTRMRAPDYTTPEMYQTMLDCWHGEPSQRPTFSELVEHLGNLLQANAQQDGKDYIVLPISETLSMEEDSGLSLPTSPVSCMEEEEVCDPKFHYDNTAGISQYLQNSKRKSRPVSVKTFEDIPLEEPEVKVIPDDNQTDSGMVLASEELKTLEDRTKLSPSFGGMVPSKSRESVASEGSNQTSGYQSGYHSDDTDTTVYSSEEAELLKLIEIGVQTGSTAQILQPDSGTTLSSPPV
Experiment: cell-based or functional assay

Question: How did the “Endothelial Cell Proliferation Activity (HUVEC), ratio to native VEGF (8-109)” value turn out when B2 was run?
Answer: 0.2 fold

Question: B7 was tested. Which “Endothelial Cell Proliferation Activity (HUVEC), ratio to native VEGF (8-109)” value did it give?
Answer: 1 fold

Question: B8 was tested. Which “Endothelial Cell Proliferation Activity (HUVEC), ratio to native VEGF (8-109)” value did it give?
Answer: 1 fold

Biological target: T1, KDR (1-3)
Experiment: competition ELISA: displacement of biotinylated native VEGF (8-109) from KDR (1-3)
Protocol: as §1, §2, §3

Question: For B2, which “relative binding affinity (ratio to native VEGF (8-109))” value is on record?
Answer: 1 fold

Question: With B1 as the binder, how does the “relative binding affinity (ratio to native VEGF (8-109))” value read?
Answer: 7 fold

Question: For B3, which “relative binding affinity (ratio to native VEGF (8-109))” value is on record?
Answer: 1 fold

Question: Which “relative binding affinity (ratio to native VEGF (8-109))” value does the source give for B4 here?
Answer: 1 fold

Question: How did the “relative binding affinity (ratio to native VEGF (8-109))” value turn out when B7 was run?
Answer: 1 fold

Question: With B8 as the binder, how does the “relative binding affinity (ratio to native VEGF (8-109))” value read?
Answer: 0.5 fold

Question: Which “relative binding affinity (ratio to native VEGF (8-109))” value does the source give for B5 here?
Answer: 0.5 fold

Question: B9 was tested. Which “relative binding affinity (ratio to native VEGF (8-109))” value did it give?
Answer: 0.5 fold

Question: With B10 as the binder, how does the “relative binding affinity (ratio to native VEGF (8-109))” value read?
Answer: 2 fold

Question: For B11, which “relative binding affinity (ratio to native VEGF (8-109))” value is on record?
Answer: 0.4 fold

Question: How did the “relative binding affinity (ratio to native VEGF (8-109))” value turn out when B12 was run?
Answer: 14 fold

Question: How did the “relative binding affinity (ratio to native VEGF (8-109))” value turn out when B13 was run?
Answer: 0.5 fold

Question: Which “relative binding affinity (ratio to native VEGF (8-109))” value does the source give for B14 here?
Answer: 2 fold

Question: How did the “relative binding affinity (ratio to native VEGF (8-109))” value turn out when B15 was run?
Answer: 0.6 fold

Question: Which “relative binding affinity (ratio to native VEGF (8-109))” value does the source give for B16 here?
Answer: 3 fold

Question: For B17, which “relative binding affinity (ratio to native VEGF (8-109))” value is on record?
Answer: 2 fold

Question: How did the “relative binding affinity (ratio to native VEGF (8-109))” value turn out when B18 was run?
Answer: 3 fold

Question: Which “relative binding affinity (ratio to native VEGF (8-109))” value does the source give for B19 here?
Answer: 4 fold

Question: How did the “relative binding affinity (ratio to native VEGF (8-109))” value turn out when B20 was run?
Answer: 11 fold

Question: How did the “relative binding affinity (ratio to native VEGF (8-109))” value turn out when B21 was run?
Answer: 10 fold

Question: For B22, which “relative binding affinity (ratio to native VEGF (8-109))” value is on record?
Answer: 4 fold

Question: For B23, which “relative binding affinity (ratio to native VEGF (8-109))” value is on record?
Answer: 23 fold

Biological target: KDR receptor with a gD tag at the N-terminus, on CHO cells (UniProt P35968 20-1356)
Experiment: cell-based or functional assay

Question: For B2, which “Phosphorylation-Inducing Activity (KIRA), ratio to native VEGF (8-109)” value is on record?
Answer: 0.5 fold

Question: With B3 as the binder, how does the “Phosphorylation-Inducing Activity (KIRA), ratio to native VEGF (8-109)” value read?
Answer: 1 fold

Question: With B4 as the binder, how does the “Phosphorylation-Inducing Activity (KIRA), ratio to native VEGF (8-109)” value read?
Answer: 0.5 fold

— US20060188503A1 (Genentech, published 2006)
